In paper PMC3428624:

Target: histone H3 K115C (UniProt P84233)
Test: cross-linking

efficiency of crosslinking at H3 K115C (H3-H3’): 80%
Substance: histone H3 K115C (from UniProt P84233 2-136) (natural protein)
